{
  "source": "patent US20050226848",
  "about": "“Transcriptional regulation of gene expression by small double-stranded modulatory RNA” (published 2005)",
  "target": "Bovine serum albumin (Bos taurus, UniProt P02769 P02769:25-607)",
  "sequence (P02769 25-607, one chain of several)": "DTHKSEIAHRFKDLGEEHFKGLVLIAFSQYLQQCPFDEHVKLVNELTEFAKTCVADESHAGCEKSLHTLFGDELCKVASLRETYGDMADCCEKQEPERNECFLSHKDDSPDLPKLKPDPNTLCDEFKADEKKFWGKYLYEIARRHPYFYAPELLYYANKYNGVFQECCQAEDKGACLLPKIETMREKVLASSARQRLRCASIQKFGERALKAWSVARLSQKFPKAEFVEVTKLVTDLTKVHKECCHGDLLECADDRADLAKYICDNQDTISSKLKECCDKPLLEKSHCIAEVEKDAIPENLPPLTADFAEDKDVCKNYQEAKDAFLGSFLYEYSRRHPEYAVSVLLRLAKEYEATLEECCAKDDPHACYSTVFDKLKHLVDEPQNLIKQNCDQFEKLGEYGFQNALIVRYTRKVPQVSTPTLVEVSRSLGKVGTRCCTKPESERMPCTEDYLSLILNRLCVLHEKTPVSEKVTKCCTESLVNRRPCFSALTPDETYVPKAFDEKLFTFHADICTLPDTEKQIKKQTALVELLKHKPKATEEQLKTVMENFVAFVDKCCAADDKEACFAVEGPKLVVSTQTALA",
  "test": "EMSA; BSA control",
  "protocol": "To compare the affinity between NRSE dsDNA and NRSE dsRNA to NRSF/REST protein, an electrophoretic mobility shift assay (EMSA) was performed. NRSF/REST with cMyc-tag was expressed in 293T cells and immunoprecipitated with anti-cMyc antiboby. After purification, the protein was incubated with either NRSE dsDNAs or dsRNAs. A range of NRSF/REST protein concentrations was tested; the highest one tested produced a shift in dsDNA migration, whereas a 16-fold lower concentration of NRSF/REST protein was enough to produce a shift in dsRNA (FIG. 6C). […] Binding of NRSF/REST to the sequence of the MCS control dsRNAs or dsDNAs was not observed. […] This highly specific binding between NRSE dsRNA and NRSF/REST protein may contribute to a functional switch of the NRSF/REST machinery from transcriptional repressor to activator.",
  "data": [
    {"binder": "NRSE dsRNA (dsRNA) RNA 1: UUCAGCACCACGGACAGCGCC RNA 2: GGCGCUGUCCGUGGUGCUGAA", "values": [
      {"measurement": "binding result", "value": "no binding"}
    ]},
    {"binder": "NRSE/RE1 dsDNA (dsDNA) DNA 1: TTCAGCACCACGGACAGCGCC DNA 2: GGCGCTGTCCGTGGTGCTGAA", "values": [
      {"measurement": "binding result", "value": "no binding"}
    ]}
  ]
}
